Two proteins from PMC6406459, “Hyperoxidation of Peroxiredoxin 6 Induces Alteration from Dimeric to Oligomeric State” (Antioxidants, 2019) can be followed below.

This data set deals with the molecule itself. Description: native gel or EMSA; native PAGE, continuous 7.5% polyacrylamide gel, non-reducing and non-denaturing; samples in 50 mM Tris-HCl, 100 mM NaCl pH 7.4; running buffer 30 mM beta-alanine, 20 mM lactic acid pH 3.8, 180 V, 2 h, reverse polarity; markers bovine albumin and horse ferritin. For orientation: In EMSA bound probe runs differently from free probe, usually more slowly.

B1: reduced rat peroxiredoxin 6 (Cys47-SH) (enzyme, UniProt O35244 1-224, looked up)
chain: MPGGLLLGDEAPNFEANTTIGHIRFHDFLGDSWGILFSHPRDFTPVCTTELGRAAKLAPEFAKRNVKLIALSIDSVEDHFAWSKDINAYNGAAPTEKLPFPIIDDKDRDLAILLGMLDPAEKDEKGMPVTARVVFIFGPDKKLKLSILYPATTGRNFDEILRVVDSLQLTASNPVATPVDWKKGESVMVLPTLPEEEAKQLFPKGVFTKELPSGKKYLRYTPQP
notes: Peroxiredoxin 6, rat, UniProtKB O35244, 224 amino acids as in the cDNA, without any vector derived residues; Kept reduced by 1 mM DTT in 50 mM Tris-HCl, 100 mM NaCl pH 7.4; also called reduced Prdx6; rPrdx6; source: reduced with 1 mM DTT; not shown: intein tag, C-terminal, cleaved
As to B1, the stoichiometry N (in general, a count of units in the complex or per binding partner) came to 2.

B2: hyperoxidized rat peroxiredoxin 6 (C47 sulfinic acid or sulfonic acid) (enzyme, UniProt O35244 1-224, looked up)
chain: B1 chain
modifications: C47 sulfinic acid or sulfonic acid (Cys47-SO2H or Cys47-SO3H)
notes: Peroxiredoxin 6, rat, UniProtKB O35244, 224 amino acids as in the cDNA, without any vector derived residues; Cys47 hyperoxidized by H2O2; Same purified protein as m1, treated with 500 uM H2O2 in 50 mM Tris-HCl, 100 mM NaCl pH 7.4; also called hyperoxidized Prdx6; oxidized Prdx6; source: incubated with 500 uM H2O2 at room temperature for 30 min to 1 h; not shown: intein tag, C-terminal, cleaved
With B2, the binding result is “binds”.
